{"source": "paper PMC5791736", "about": "“CCPG1 Is a Non-canonical Autophagy Cargo Receptor Essential for ER-Phagy and Pancreatic ER Proteostasis” (Developmental Cell, 2018)", "binders": {"B1": {"name": "His-GABARAP (natural protein, human, UniProt O95166 1-117, looked up)", "chain": "MKFVYKEEHPFEKRRSEGEKIRKKYPDRVPVIVEKAPKARIGDLDKKKYLVPSDLTVGQFYFLIRKRIHLRAEDALFFFVNNVIPPTSATMGQLYQEHHEEDFFLYIAYSDESVYGL", "notes": "GABARAP, human ATG8 ortholog; also called purified, recombinant His-GABARAP; source: recombinant, purified"}}, "molecular_target": "T1, GST-CCPG1 NTD (bacterial) (1-230) (human, UniProt Q9ULG6 1-230)", "T1 construct": "CCPG1, human, N-terminal amino acids 1-230 (NTD); source: E. coli Rosetta II (DE3), pre-purified on glutathione Sepharose beads", "T1 sequence (looked up)": "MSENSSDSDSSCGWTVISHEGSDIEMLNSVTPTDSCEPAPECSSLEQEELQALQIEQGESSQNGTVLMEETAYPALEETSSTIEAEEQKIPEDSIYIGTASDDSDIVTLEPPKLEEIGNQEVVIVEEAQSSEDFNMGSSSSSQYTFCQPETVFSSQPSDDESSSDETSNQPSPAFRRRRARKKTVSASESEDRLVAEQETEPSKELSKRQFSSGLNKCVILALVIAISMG", "test": "pull-down; GST-CCPG1 NTD pre-purified on glutathione Sepharose beads, incubated with purified recombinant protein (His-GABARAP or His-FIP200) in IGEPAL IP buffer, 4°C; immunoblot", "conditions": "both partners purified", "data": [{"binder": "B1", "values": [{"measurement": "binding result", "result": "binds"}]}]}
